Data on one substance can be found in patent publication US20060024722A1.

The target of the experiment is oncofetal fibronectin (human) (UniProt P02751). In words: lateral flow sandwich assay (FDC-6 latex conjugate / immobilised goat anti-fibronectin), TLiIQ reflectance reader.
Chain of UniProt P02751 (P02751 32-2477): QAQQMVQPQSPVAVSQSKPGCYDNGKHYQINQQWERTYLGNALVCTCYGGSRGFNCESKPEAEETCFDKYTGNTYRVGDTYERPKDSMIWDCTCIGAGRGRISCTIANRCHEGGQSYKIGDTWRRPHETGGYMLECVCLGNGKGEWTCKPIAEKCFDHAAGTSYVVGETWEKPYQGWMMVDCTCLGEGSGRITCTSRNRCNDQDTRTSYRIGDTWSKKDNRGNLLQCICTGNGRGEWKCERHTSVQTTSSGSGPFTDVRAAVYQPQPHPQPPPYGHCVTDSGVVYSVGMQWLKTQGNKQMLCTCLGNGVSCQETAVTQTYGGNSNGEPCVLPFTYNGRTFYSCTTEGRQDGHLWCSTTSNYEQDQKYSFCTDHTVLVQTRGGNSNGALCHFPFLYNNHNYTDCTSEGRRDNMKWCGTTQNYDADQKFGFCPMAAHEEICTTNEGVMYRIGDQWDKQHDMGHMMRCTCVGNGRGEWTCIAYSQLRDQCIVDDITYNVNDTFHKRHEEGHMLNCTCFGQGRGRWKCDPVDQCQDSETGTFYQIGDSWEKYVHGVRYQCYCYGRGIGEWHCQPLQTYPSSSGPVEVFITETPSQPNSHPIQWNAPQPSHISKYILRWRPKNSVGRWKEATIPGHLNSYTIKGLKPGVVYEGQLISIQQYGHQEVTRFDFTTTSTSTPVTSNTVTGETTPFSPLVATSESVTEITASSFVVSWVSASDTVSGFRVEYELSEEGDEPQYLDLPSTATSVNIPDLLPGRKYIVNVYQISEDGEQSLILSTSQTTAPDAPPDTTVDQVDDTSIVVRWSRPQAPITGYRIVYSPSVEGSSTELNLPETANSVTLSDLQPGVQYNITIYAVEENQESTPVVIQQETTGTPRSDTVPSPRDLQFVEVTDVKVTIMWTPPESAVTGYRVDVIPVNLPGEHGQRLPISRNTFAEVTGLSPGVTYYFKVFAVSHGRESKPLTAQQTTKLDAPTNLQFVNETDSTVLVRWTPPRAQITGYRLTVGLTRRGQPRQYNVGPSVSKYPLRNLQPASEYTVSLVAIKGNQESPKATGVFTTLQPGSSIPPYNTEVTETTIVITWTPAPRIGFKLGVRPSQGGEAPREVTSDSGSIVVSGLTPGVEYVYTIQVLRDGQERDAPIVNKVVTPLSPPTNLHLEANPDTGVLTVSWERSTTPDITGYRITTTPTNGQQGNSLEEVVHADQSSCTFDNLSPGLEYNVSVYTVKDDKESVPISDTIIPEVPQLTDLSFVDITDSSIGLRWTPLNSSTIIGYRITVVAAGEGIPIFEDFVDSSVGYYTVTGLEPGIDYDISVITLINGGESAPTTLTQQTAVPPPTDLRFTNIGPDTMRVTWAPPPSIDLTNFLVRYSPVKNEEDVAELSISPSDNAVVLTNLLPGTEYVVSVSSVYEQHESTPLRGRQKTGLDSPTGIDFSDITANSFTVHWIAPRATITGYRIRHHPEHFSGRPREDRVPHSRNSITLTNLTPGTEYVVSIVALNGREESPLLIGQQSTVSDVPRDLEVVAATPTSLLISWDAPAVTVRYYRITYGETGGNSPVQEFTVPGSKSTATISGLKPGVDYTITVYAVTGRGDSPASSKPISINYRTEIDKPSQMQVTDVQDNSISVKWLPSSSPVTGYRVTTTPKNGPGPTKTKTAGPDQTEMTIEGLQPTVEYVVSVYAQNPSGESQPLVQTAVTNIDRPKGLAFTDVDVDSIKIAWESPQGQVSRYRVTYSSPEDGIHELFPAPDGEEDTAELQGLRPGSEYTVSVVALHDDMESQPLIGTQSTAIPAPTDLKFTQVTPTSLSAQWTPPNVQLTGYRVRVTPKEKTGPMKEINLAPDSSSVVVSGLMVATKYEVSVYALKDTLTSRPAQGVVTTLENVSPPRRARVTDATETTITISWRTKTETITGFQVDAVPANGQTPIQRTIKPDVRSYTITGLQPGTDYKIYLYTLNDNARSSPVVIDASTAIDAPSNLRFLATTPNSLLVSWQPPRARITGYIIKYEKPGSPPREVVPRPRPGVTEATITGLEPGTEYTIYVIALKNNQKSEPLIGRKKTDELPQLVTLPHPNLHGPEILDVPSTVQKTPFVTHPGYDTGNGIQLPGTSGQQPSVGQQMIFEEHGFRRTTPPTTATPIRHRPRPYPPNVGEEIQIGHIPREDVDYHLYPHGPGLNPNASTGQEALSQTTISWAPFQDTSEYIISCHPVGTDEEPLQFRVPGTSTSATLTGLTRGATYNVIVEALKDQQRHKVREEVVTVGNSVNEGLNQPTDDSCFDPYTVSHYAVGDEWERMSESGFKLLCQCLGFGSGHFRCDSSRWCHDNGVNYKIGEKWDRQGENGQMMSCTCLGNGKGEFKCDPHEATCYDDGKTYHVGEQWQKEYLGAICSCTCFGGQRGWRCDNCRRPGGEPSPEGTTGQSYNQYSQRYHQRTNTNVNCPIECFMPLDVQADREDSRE

Regarding “monoclonal antibody FDC-6 produced by hybridoma ATCC HB 9018”, the reflectance signal at 50 ng/ml oncofetal fibronectin (reflectance signal) turned out to be 0.315.
